Experimental data taken from article doi:10.1101/2024.12.11.628028 (bioRxiv, 2024).

Molecular target: the molecule itself
Assay: crystal structure

B1: Nicotinamide phosphoribosyltransferase (NAMPT), human, with N terminal His-tag (enzyme)
chain: MNPAAEAEFNILLATDSYKVTHYKQYPPNTSKVYSYFECREKKTENSKLRKVKYEETVFYGLQYILNKYLKGKVVTKEKIQEAKDVYKEHFQDDVFNEKGWNYILEKYDGHLPIEIKAVPEGFVIPRGNVLFTVENTDPECYWLTNWIETILVQSWYPITVATNSREQKKILAKYLLETSGNLDGLEYKLHDFGYRGVSSQETAGIGASAHLVNFKGTDTVAGLALIKKYYGTKDPVPGYSVPAAEHSTITAWGKDHEKDAFEHIVTQFSSVPVSVVSDSYDIYNACEKIWGEDLRHLIVSRSTQAPLIIRPDSGNPLDTVLKVLEILGKKFPVTENSKGYKLLPPYLRVIQGDGVDINTLQEIVEGMKQKMWSIENIAFGSGGGLLQKLTRDLLNCSFKCSYVVTNGLGINVFKDPVADPNKRSKKGRLSLHRTPAGNFVTLEEGKGDLEEYGQDLLHTVFKNGKVTKSYSFDEIRKNAQLNIELEAAHH
B1: binds.
